Measured values published in US20220273713A1, “METHOD OF INHIBITING OR ACTIVATING GAMMA DELTA T CELLS” (The University of Melbourne, priority 2019, published 2022).
Entries after “also recorded” stand apart in the source; their conditions may differ.

Assays:
PBMCs = experiment: Luminex (PBMCs): cytokine/chemokine expression in freshly isolated PBMCs; format: cell-based, human
Description: Blood from a healthy donor (Red Cross Australia) was ficolled, PBMC layer collected, washed and 5×10^5 cells were treated with the indicated antibodies in duplicates @ 10 μg/ml in 500 ul TCRPMI supplemented with 100u/ml IL-2 and incubated at 37 degrees C. and 5% CO2 for 16 hrs. Supernatants were collected and submitted for Luminex Human 20-plex Inflammation panel analysis (EPX200-12185-901) to Crux Biolabs (Scoresby, VIC, Australia). This measures the following analytes: GM-CSF; ICAM-1, IFN-α; IFN-g, IL-1α, IL-1b, IL-10, IL-12p70, IL-13, IL-17A, IL-4, IL-8, IP-10, MCP-1, IL-6, MIP-1α, MIP-1b, sE-selectin, sP-Selectin, TNF-α. All samples were run with appropriate controls and standards. Treatment with antibody 259 was only performed in one well.

LM-MEL-62 melanoma cells = experiment: In vitro killing assays (antibody titration, E:T titration), MTS; format: cell-based, human
Description: Vγ9Vδ2 cells were isolated from either healthy donor (Red Cross Australia) or cancer patient derived PBMC using TCRγ/δ+ T Cell Isolation Kit (Miltenyi). Patients provided informed consent and research was approved under HREC 14/425. […] For all assays LM-MEL-62 melanoma cells were plated out at 10,000 cells/well in 100 μl RF10 media in 96-well flat bottomed plates and left to adhere overnight at 37 degrees C. and 5% CO2. […] Cells were incubated at 37 degrees C. and 5% CO2. At day 3 Vγ9Vδ2 cells were washed out and 100 μl MTS reagent was added to wells for 1 hour as per manufacturers protocol (Promega, USA). Plates were subsequently read at 490 nm using a Spectrostar Nano microplate reader (BMG Labtech) to determine cell viability corrected for background absorbance.

[1] = PBMCs from a healthy donor, antibodies 10 μg/ml, 16 hrs, duplicates, 259 one well

B1: antibody 259: agonistic anti-BTN2A1 antibody; VL SEQ ID NO: 156, VH SEQ ID NO: 160 (antibody, V domains shown)
VH: EVQLLESGGGLVQPGGSLRLSCAASGFTFSSYAMQWVRQAPGKGLEWVSRIGPSGGGTMYADSVKGRFTISRDNSKNTLYLQMNSLRAEDMAVYYCARDLGGLSVLFDYWGQGTLVTVSS
VL: QSELTQPPSASETPGQRVTISCSGSSSNIGSNTVSWFQQLPGSAPRLLIYNDHRRPSGVPDRFSGSKSGTSASLVISGLQSQDEADYYCSAWDDSLNGVVFGGGTKLTVL
modifications: amino acid sequence of the VH of antibody 259; amino acid sequence of the VL of antibody 259
PBMCs; [1]
  ICAM-1: 1578.36 pg/mL
  IFNγ: 104.96 pg/mL
  IL-1α: 8.7 pg/mL
  IL-1β: 5.19 pg/mL
  IL-6: 462.59 pg/mL
  IL-8: 495.89 pg/mL
  IL-10: 49.99 pg/mL
  IL-17A: 24.59 pg/mL
  IP-10: 641.08 pg/mL
  MCP-1: 1023.7 pg/mL
  MIP-1α: 131.71 pg/mL
  MIP-1β: 584.34 pg/mL
  sE-selectin: 327.64 pg/mL
PBMCs; full PBMC
  TNFα levels: no increase
PBMCs; full PBMC, vs isotype
  IL-8 (CXCL8), CCL2 (MCP-1) and IL-6: up-regulated
  expression of IFNγ and sE-Selectin: increased expression
LM-MEL-62 melanoma cells; E:T titration 2:1 to 1:16, 10 ug/ml antibody 259 or 4 uM zoledronate, both donors
  tumour cell killing compared to treatment with zoledronic acid: killing occurred to a lesser extent
LM-MEL-62 melanoma cells; LM-MEL-62 with Vγ9Vδ2 cells 1:1, antibody titration, listed as 259
  induction of LM-MEL-62 cell killing, 259 compared with 253: more potent inducer of cell killing than antibody 253; also recorded: lower viability rates of LM-MEL-62 cells when compared to antibody 253
